According to patent US20130316376:

Tested on: His6ZQGRep4CT

Protease 3C was tested, and the “Protease 3C cleavage of a Z-Rep4CT fiber (SDS-PAGE of the cleavage supernatant)” value was “the Protease 3C cleavage site is available for cleavage in Z-Rep4CT fibers and therefore, the HZ part can be removed”.
